Literature values as cited in publication PMC6431256.

Target: tau peptide (Homo sapiens) (UniProt P10636)
Assay: ITC

Sequence of tau peptide (Homo sapiens) (P10636 2-758): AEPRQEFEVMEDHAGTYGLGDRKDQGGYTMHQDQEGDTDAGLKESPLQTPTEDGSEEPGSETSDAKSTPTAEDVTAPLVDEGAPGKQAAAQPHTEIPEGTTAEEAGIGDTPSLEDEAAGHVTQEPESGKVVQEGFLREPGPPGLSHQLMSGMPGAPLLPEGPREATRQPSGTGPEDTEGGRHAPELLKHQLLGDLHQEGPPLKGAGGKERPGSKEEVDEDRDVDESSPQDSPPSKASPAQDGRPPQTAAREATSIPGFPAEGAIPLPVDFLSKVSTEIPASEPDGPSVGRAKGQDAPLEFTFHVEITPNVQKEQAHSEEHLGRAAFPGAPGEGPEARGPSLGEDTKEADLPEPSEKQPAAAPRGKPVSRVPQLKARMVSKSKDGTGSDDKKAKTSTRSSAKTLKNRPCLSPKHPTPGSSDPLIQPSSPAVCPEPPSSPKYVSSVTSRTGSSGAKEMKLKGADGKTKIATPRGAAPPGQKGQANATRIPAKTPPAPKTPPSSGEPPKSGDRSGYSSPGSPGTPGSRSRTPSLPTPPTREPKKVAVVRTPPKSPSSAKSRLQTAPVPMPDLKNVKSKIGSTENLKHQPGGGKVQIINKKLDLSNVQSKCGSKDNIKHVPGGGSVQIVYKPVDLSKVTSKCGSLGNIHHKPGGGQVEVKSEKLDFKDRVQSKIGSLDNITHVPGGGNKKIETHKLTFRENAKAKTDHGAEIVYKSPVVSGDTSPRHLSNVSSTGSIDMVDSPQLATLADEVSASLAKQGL
Sequence of Pin1 (Q13526 whole entry): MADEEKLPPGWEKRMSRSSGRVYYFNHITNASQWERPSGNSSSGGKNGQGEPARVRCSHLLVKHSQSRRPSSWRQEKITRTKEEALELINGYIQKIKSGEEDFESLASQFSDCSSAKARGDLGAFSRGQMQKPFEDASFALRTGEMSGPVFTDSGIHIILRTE

- Kd: 200 µM
Substance: Pin1 (from UniProt Q13526)
